Measured values published in the supplement of paper PMC12042874.
± gives the uncertainty stated by the source.

Test: amyloid nucleation score (Sup35N fusion, yeast selection) (log enrichment); library NNK2; higher = more nucleation; inactive = no reads after selection
How it was run: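 The nucleation score equals the log enrichment of output over input reads from DiMSum, centred on the mode score of non-aggregating sequences. It was computed only for sequences with 100 or more input reads. The reads came from Illumina sequencing of plasmid inserts from psi-negative yeast expressing Sup35N fused to peptides of 20 random codons, induced with 100 μM copper sulfate for 24 hours and grown 7 days at 30°C without adenine and uracil.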

Substance	amyloid nucleation score
YWVSCHVALGMALKSVLVPC	0.009 ± 0.76
YWNEP	0.15 ± 0.37
LYVFLLCNITLTSPLFNLLF	3.92 ± 0.1
YLGWVVCFRHCLIGH	0.145 ± 0.56
LAGWRRK	0.355 ± 0.36
GMGQQEVPNWGMATGCGYEE	0.081 ± 1.1
RHGGQAAGRVEHVTSGCQRV	1.54 ± 0.47
NLDDYYDNILFTAMR	0.201 ± 0.54
KRVSASDISSLYADVRIKE	-0.852 ± 0.76
FWSSARKDLSATKKGVGFVG	5.52 ± 0.06
SLTCIDWSELQYSNKSFGSM	-0.766 ± 0.79
LIYPANVWFGFYAEAGEVAQ	4.21 ± 0.044
YPIVLRA	1.01 ± 0.48
VDTHSILASCLRVTKGVTDK	0.138 ± 1.1
YRVVM	1.22 ± 0.69
VCLCCYYIYYERFSNGFFLL	5.02 ± 0.058
KIAWLTLHLTMWFST	0.329 ± 0.41
ILAGSAFCLLCCVKAGWSDE	6.41 ± 0.086
NLGCPYCISVGC	0.649 ± 0.42
DVMYFGASLGTFVGVIADWE	inactive
KGWNMHSPMRALQHAETVGT	0.859 ± 0.3
SYVFAPWFLVILPKSISMD	4.58 ± 0.079
WVSMVVCMVSYNSYFE	5.48 ± 0.062
QHYRSYTSILVCSYFYFDAQ	3.12 ± 0.12
SWLVDPTLGTRLSFTVMYRC	0.053 ± 1.1
VPLHDARTRM	0.637 ± 0.24

Substance	amyloid nucleation score
FSGTF	-1.07 ± 0.76
VPSRS	0.172 ± 0.65
ITTFLCSGFCIINAVRNFLS	2.77 ± 0.12
SGVFAFTKLLNTIEGDFCHR	-0.721 ± 0.64
SALPDSTNRIASVGGISPGS	0.489 ± 0.46
LGLDFLCIRYSGFKCTTF	2.34 ± 0.14
FFGGYYYKLSQKLLRIAHYH	inactive
SLLGV	-1.3 ± 0.34
WTKEAKIYSCFCSHF	8.663 ± 0.08
HNIIWFSLTWLRYMSVVVIC	inactive
NLHYHSSTSSTRNFKYGCAF	inactive
FWSGVTFSVLSYMSVSNMVP	-0.979 ± 0.55
SKLYDVCVHRVWRTWGFQEN	0.027 ± 1
ASQAHSEIMLVVTMNALHQP	7.57 ± 0.076
MNMRAGTEL	0.479 ± 0.54
TCLYP	-0.707 ± 0.55
FCKDLMFC	0.378 ± 0.36
VWTCIVFSR	6.22 ± 0.074
NFSYASNTEHRPVSNIFWEL	-1.33 ± 0.62
KPLCS	-0.58 ± 0.55
MYLLVV	0.786 ± 0.41
ISEDIIWC	1.24 ± 0.25
FSLSCM	inactive
GKMTPLLVNQTVSYCMLSSM	6.273 ± 0.035
LEAYVGLLCLSGRLTFSGKC	2.6 ± 0.1
VSCLTAPILSMENPSEEYVG	1.55 ± 0.35

Substance	amyloid nucleation score
SHHLRKSFCPC	-0.279 ± 0.5
VYCHRLNIILIGRVFCSEDI	0.062 ± 0.55
SSCKARMVFMLGRYGSGRNL	0.112 ± 0.79
IIRYTSILWKINGSGVNFWF	-0.67 ± 0.55
IFSTHVEFRWQLILGL	-0.426 ± 0.25
KYLGLGAFCVTVDYQRVWDA	0.879 ± 0.58
YRFMTLVQHSYRCICLRLNA	-0.183 ± 0.33
NENKGNF	-0.947 ± 0.54
QYLVRYLYAITLK	-0.603 ± 1
TAWSMNVHVSANVSTCRPLR	1.87 ± 0.2
IASISERLYCFAGPTIRCNR	0.338 ± 0.43
KFFLFDHNNNF	0.699 ± 0.33
MSGFTFKTLGGISHYDFQLD	inactive
KNNVCSHIPNLGSYYLF	0.736 ± 0.8
LYLLM	-0.358 ± 1
NVLWIDLSRVKVVDGNRSPE	6.342 ± 0.061
WDSSPGISVVSIRLEQ	5.431 ± 0.036
LSIHLQRTQWYLLFEW	0.01 ± 0.39
VMVFVCVAYEYEFSPIRGPE	inactive
YVAVYSCLSRGCTLS	9.186 ± 0.077
HLMLRKGLVKCWVQTVVGSG	1.48 ± 0.33
QAFVNFNIIYDV	5.959 ± 0.053
GYCLMTFLISTCYG	5.166 ± 0.031
RVDKGVEFSSTSGSVRNFSL	-0.83 ± 1.1
IFCNTLCQIGFRRNVKASGN	-0.104 ± 0.5
KYTCLVMAL	1.11 ± 0.28

Substance	amyloid nucleation score
GLGLSFDVSVVPQDGYGIRL	-0.492 ± 1.1
CFTPFMLFCKDEV	-1.12 ± 0.55
QICNARFLLLLRTQALEQCA	0.499 ± 0.56
MVNYDDMANGS	0.465 ± 0.8
VLPEWSLF	inactive
CVRDTLIETFHSVFNPHRRV	0.983 ± 0.29
SVMPMRYLVCVILLGRRSRT	0.765 ± 0.16
LIFNYRVFLSFSW	-0.356 ± 1.1
NMYFCLFFRIVLLLGNDKIA	-1.06 ± 0.6
TFFYCGPRKLFYKI	-0.387 ± 1.1
WESCWIHLFHLSIHLTTNFY	2.08 ± 0.088
FRTYSAVVEWARNKYNLFCG	-0.271 ± 0.28
TVRLFFLG	3.98 ± 0.11
WDIRVVVSVRCNMQVYLFVC	0.581 ± 0.51
LSMTEWVFSKGNRALAVYYM	-1.39 ± 0.61
NSNSCAHLTKTRYKSTVRYT	2.1 ± 0.23
FYSFRLFMV	1.88 ± 0.2
CCPEHRNRAGNNDFWSARTQ	0.392 ± 0.57
LSSWS	-0.611 ± 0.44
EHSWIKLCIEWMSKPIGARR	0.927 ± 0.32
NEIASEYSYRPLLRGWSS	-0.119 ± 0.4
SLKSYVSVQFELASSVWILE	1.02 ± 0.24
WGHANFAEVWNDP	0.385 ± 0.6
SLFWNISPLKWSLLIGRCSV	-1.01 ± 0.78
KVSAPHCRLGFWCILC	inactive
GFKILIEFWSATGRLQ	3.97 ± 0.078

Substance	amyloid nucleation score
VDNCDLGIS	-0.861 ± 1.1
SCGMFESPAVYGYSARLSRL	inactive
SGTSLRVTSNRRFDMYGVYG	-0.766 ± 0.5
SVYGKFLYF	2.23 ± 0.11
CTPDLLSVNFDVVVLQW	-0.58 ± 0.55
SNCVCSRIVCCVRMGTGL	9.908 ± 0.042
ELFYDLSQTCQMCF	-0.759 ± 0.64
TWLSLSLYPFSKSYSISAGF	-0.321 ± 1
NHESYWSKSSWFWLFNGVSQ	inactive
QGGFMIFDRITGGLRVMNGL	0.263 ± 0.23
TGWNDATRY	-0.467 ± 0.49
MSLLYGS	0.523 ± 0.64
SGSIKHMNLVMV	-0.027 ± 0.2
IVGLQVAFFLVFKSVHRDVA	inactive
VDVVFTSSSTSLCSLSWSGV	4.79 ± 0.099
TMKHPDMS	-0.152 ± 0.55
DGVSAFVCTFRDAVVRSAME	4.29 ± 0.045
LQDAHHSVVCVRQSCYERLG	-0.187 ± 0.65
LGFSGNI	inactive
YDGANWRSKGWLDLFSIMKQ	-1.23 ± 0.75
NFIRDSMVTCRYEKDLGA	0.713 ± 0.8
MLCKRPWVTLFRLSKCFTSD	0.33 ± 0.56
FVLRCDPVMA	-0.053 ± 1
TPPTHWSFFMIWARCEKLGG	-1.01 ± 0.64
ISDHTTNKDQRFSYS	-0.455 ± 1.1
